The chains are these.
B1: HDV Ribozyme (parent)
chain: GGCCGGCAUGGUCCCAGCCUCCUCGCUGGCGCCGGCUGGGCAACAUUCCGAGGGGACCGUCCCCUCGGUAAUGGCGAAUGGGACCCA

Our source for the self-cleavage values is the RNAGym collection of RNA variant scans (doi:10.7554/elife.80360).

Variants of B1 are the subject of the series. In words: self-cleavage, relative activity (ratio to wild type); higher = more cleavage; co-transcriptional.
On to C13G C44G, for which the self-cleavage was 0.
Then C7U G34A, with 0.0302; and A16G A83G, with 0.755.
As for C14G C22A, the figure is 0; as for G6U C66A, 0.443; as for A42G C84A, 0.554.
With G2U A71G, the self-cleavage amounted to 0.141.
Then C26G G40C, with 0.19; and C26U G38A, with 0.0573.
With C4U U46G, the self-cleavage was determined as 0.277.
Consider C3U G67U, for which the self-cleavage is 0.752.
As to G59A G81A, the self-cleavage was determined as 0.472.
On to C4A C44G, for which the self-cleavage stood at 0.0665.
Then G35U C44U, with 0.193; and C24G G82U, with 0.0302; and C22A C24U, with 0.0361.
With C18U U65C, the self-cleavage turned out to be 0.831.
In the case of C58G G76A, the self-cleavage is 1.
C26A G38U: the self-cleavage came to 0.208.
As for C22U A43G, the figure is 0.116.
Consider A42U C86A, for which the self-cleavage worked out at 0.492.
As for G38A A70G, the figure is 0; as for C48G C85U, 0.831; as for G35U A77G, 0.305.
As for C4U C41G, the figure is 0.374; as for U12G G67C, 0.962.
On to G31U G40A, for which the self-cleavage is 0.359.
Then G38U C66G, with 0.0764; and C36U G81U, with 0.29; and G50U C85U, with 1.02.
As for C58A G68A, the figure is 0.95; as for C13U C58U, 0.403; as for G2C G55U, 0.0346.
Then U46C G50U, with 0.779; and G50U A77C, with 0.499.
With C4A C66U, the self-cleavage was 0.361.
Regarding U20C C21G, the self-cleavage amounted to 0.
Then C15U G80C, with 0.177.
C21A C57A: the self-cleavage came out at 0.102.
As for G31U G34A, the figure is 0.0804; as for C21G G25A, 0.185; as for C30U C61A, 0.718.
Turning to U27G U69A, the self-cleavage amounted to 0.959.
On to G40A A77C, for which the self-cleavage stood at 0.427.
As for G2A C30G, the figure is 0.0432; as for G39C A77G, 0.243.
Then C4A C62A, with 0.177; and C15U C41G, with 0.475.
G55A C62U: the self-cleavage was determined as 1.03.
As for G40C A83C, the figure is 0.0755.
As for G50A G54U, the figure is 0.852.
As for C64G A78G, the figure is 0.527.
In the case of C26U G67C, the self-cleavage was determined as 1.12.
Then A71G A83U, with 0.323.
Take C18G U47A: the self-cleavage is 0.
Then C44G G59A, with 0.636.
With G52A C62G, the self-cleavage is 0.397.
Then C58G A70C, with 0.712; and G28C C41A, with 0.0573; and G1C U12A, with 0.
Take A8U U65C: the self-cleavage amounted to 0.895.
As for A16U C26U, the figure is 0.831.
Take C24A G34C: the self-cleavage was 0.0852.
Take C33G A45C: the self-cleavage came to 0.0449.
As for C15A G81A, the figure is 0.57.
As for C14A U27A, the figure is 0.739.
As to C24A A71C, the self-cleavage was determined as 0.38.
For the variant C21U U27G, the self-cleavage was 0.0755.
As for G10C A70G, the figure is 0.516.
In the case of G28C G50U, the self-cleavage stood at 0.0519.
Then C21U G76U, with 0.542; and C66A G76A, with 1.13; and G31C U69A, with 0.299.
Consider G17C A71G, for which the self-cleavage is 0.475.
As for G17C A71U, the figure is 0.32; as for C19G G76A, 0.0545; as for A16G C63A, 1.03.
Take A51U C85U: the self-cleavage turned out to be 0.916.
For the variant G39U A87U, the self-cleavage was 0.683.
As for C62G U69A, the figure is 1.04; as for C18G C66G, 0.0665; as for G50U G76U, 1.04.
On to C33A A87U, for which the self-cleavage worked out at 0.226.
G34U A42G: the self-cleavage stood at 0.0449.
As for C15G G38U, the figure is 0.
As for C19G C32A, the figure is 0.0462; as for G39A G67A, 0.453; as for A42G C48U, 0.525.
Then A16C A70G, with 0.923; and C13G U23G, with 0; and G10C G39U, with 0.808.
As to C58U U79G, the self-cleavage amounted to 0.612.
As for G17U C64U, the figure is 0.521; as for G1A G52C, 0.237.
For the variant G34C A56C, the self-cleavage stood at 0.237.
With U72C C75G, the self-cleavage is 0.166.
Then U20C U69G, with 0.0639; and C3A A71G, with 0.38; and C15A, with 0.698.
As for G50A C57U, the figure is 1; as for U12G U37G, 0.277; as for G35A U79C, 0.282.
As for G29C A51C, the figure is 0.231; as for G11C A16U, 0.434.
U20A A45U: the self-cleavage stood at 0.
Then U69C G82A, with 0.246; and G11C G54U, with 0.289.
Take G40U A77U: the self-cleavage is 0.212.
As for G6U A16C, the figure is 0; as for C30U U79C, 0.148; as for G39U C41A, 0.719.
As to C18A U46A, the self-cleavage worked out at 0.0923.
Turning to U23C G68U, the self-cleavage came out at 0.897.
For the variant C44U C85G, the self-cleavage was 0.673.
For C32A G54U, the self-cleavage turned out to be 0.102.
As for C64A A77U, the figure is 0.449; as for C41G A70C, 0.475.
Turning to C22G G25A, the self-cleavage turned out to be 0.0396.
As for G17A G55A, the figure is 0.705; as for U37G G81U, 0.0489.
Then G10C G11U, with 0.185; and G11U C32U, with 0.215; and C62G C86G, with 1.14.
With C19A U27A, the self-cleavage is 0.312.
Then C22G G35C, with 0.0978; and G67U C75A, with 0.0426.
Then A16U A42G, with 0.166; and C18U A87G, with 0.733; and C49G G52C, with 0.287.
As for U9A C63A, the figure is 1.25.
On to G2C A43G, for which the self-cleavage was found to be 0.
G31A G73A: the self-cleavage is 0.234.
For A83G C84U, the self-cleavage was determined as 0.798.
Then C4A G52A, with 0.401; and A8G U47C, with 1.07; and U23A C75A, with 0.277.
As for U9C G31U, the figure is 0.399; as for U9C G31A, 0.269.
Then C26U C84G, with 0.962.
As for G68A C84G, the self-cleavage came to 0.475.
For the variant U27G G53C, the self-cleavage was 1.01.
Turning to G59U U69C, the self-cleavage was 0.852.
As for G1C U65C, the figure is 0.128; as for C44A U46G, 0.785.
As for G35A A83C, the figure is 0.0692; as for C58U U69C, 0.95; as for A43G C86G, 0.727.
As for U9G G25A, the figure is 0.0755; as for G35U C63G, 0.262; as for G34A G53A, 0.174.
With C21G G54C, the self-cleavage came out at 0.0264.
In the case of C14U C15U, the self-cleavage stood at 0.665.
C41A C62A: the self-cleavage turned out to be 0.77.
As for G17A C75U, the figure is 0.138; as for G2A U47G, 0.374.
With G35U G74A, the self-cleavage is 0.058.
Turning to C30G C75A, the self-cleavage worked out at 0.0583.
For G38U A71G, the self-cleavage amounted to 0.166.
Then U23A G76U, with 0.941; and C7A G29A, with 0.0804.
Turning to C64G C75U, the self-cleavage was found to be 0.163.
Then U60G U65C, with 1.17.
As for G2A C84U, the figure is 0.119; as for G38U A87G, 0.16.
For the variant A71G G80C, the self-cleavage worked out at 0.271.
Then A42C U65A, with 0.155; and U79G G81C, with 0.26.
